Data as given in PMC6597557, “A split fluorescent reporter with rapid and reversible complementation” (Nature Communications, 2019).

T1: CFAST11 (fragment 115-125 of FAST)
T1 construct: C-terminal fragment 115-125 of the engineered protein FAST; source: synthetic peptide, bought: Clinisciences, 98% purity
T1 peptide: Ac-GDSYWVFVKRV-NH2

T2: CFAST10
T2 construct: CFAST11 without its last C-terminal residue; source: synthetic peptide, bought: Clinisciences, 98% purity
T2 peptide: Ac-GDSYWVFVKR-NH2

T3: CFAST9
T3 construct: CFAST11 without its last two C-terminal residues; source: synthetic peptide, bought: Clinisciences, 98% purity
T3 peptide: Ac-GDSYWVFVK-NH2

T4: CFAST8
T4 construct: CFAST11 without its last three C-terminal residues; source: synthetic peptide, bought: Clinisciences, 98% purity
T4 peptide: Ac-GDSYWVFV-NH2

T5: NFAST (fragment 1–114 of FAST)
T5 construct: N-terminal fragment (residues 1-114) of the engineered fluorogenic reporter FAST, split between Ser 114 and Gly 115; numbers count on: FAST; Cloned in pET28a with NheI and XhoI; Surmise: the His tag is the N-terminal one of the vector; no cleavage is told; also called recombinantly purified NFAST; source: E. coli Rosetta (DE3) pLysS, purified (Ni-NTA, PD-10 desalting)
T5 chain: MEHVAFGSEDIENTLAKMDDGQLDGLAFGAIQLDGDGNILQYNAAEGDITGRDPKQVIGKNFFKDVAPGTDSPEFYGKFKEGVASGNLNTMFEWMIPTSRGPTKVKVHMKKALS


Key:
Conditions in all cases: both partners purified
[1] = target: T1, CFAST11 (fragment 115-125 of FAST); assay: other fluorescence titration; NFAST titrated onto 100 nM CFASTn in the presence of 10 µM HBR-3,5DOM; pH 7.4 phosphate buffered saline, 25 °C; excitation 520 nm, emission 600 nm; plate reader; one-site-specific binding fit; apparent
[2] = target: T2, CFAST10; assay: as above
[3] = target: T3, CFAST9; assay: as above
[4] = target: T1, CFAST11 (fragment 115-125 of FAST); assay: other fluorescence titration; NFAST titrated onto 100 nM CFASTn in the presence of 10 µM HMBR; pH 7.4 phosphate buffered saline, 25 °C; excitation 480 nm, emission 540 nm; plate reader; one-site-specific binding fit; apparent
[5] = target: T4, CFAST8; assay: as above
[6] = target: T2, CFAST10; assay: as above
[7] = target: T3, CFAST9; assay: as above
[8] = target: T5, NFAST (fragment 1–114 of FAST); assay: other fluorescence titration; synthetic CFASTn peptides (n = 8–11) and recombinant purified NFAST in the presence of fluorogen (10 µM HMBR; also HBR-3,5DOM); Spark 10M plate reader; one-site-specific binding fit; apparent

Kd [1] [µM] | Kd [2] [µM] | Kd [3] [µM] | Kd [4] [µM] | Kd [5] [µM] | Kd [6] [µM] | Kd [7] [µM] | binding result [8] | Binder
1.4 ± 0.2 | 6.2 ± 0.5 | 25 ± 1 | 0.21 ± 0.05 | 21 ± 4 | 0.95 ± 0.08 | 5.7 ± 0.6 |  | NFAST (fragment 1-114 of FAST, Fluorescence-Activating and absorption-Shifting Tag) (domain or fragment, Cloned into pET28a by NheI and XhoI; also called Histag-NFAST; pAG209; source: E. coli Rosetta (DE3) pLysS, purified (Ni-NTA, PD-10 desalting into PBS)) MEHVAFGSEDIENTLAKMDDGQLDGLAFGAIQLDGDGNILQYNAAEGDITGRDPKQVIGKNFFKDVAPGTDSPEFYGKFKEGVASGNLNTMFEWMIPTSRGPTKVKVHMKKALS
 |  |  |  |  |  |  | binds | Ac-GDSYWVFVKRV-NH2 (C-terminal fragment (residues 115-125) of the engineered reporter FAST; numbers count on: FAST; source: synthetic peptide, bought: Clinisciences (98% purity)) [CFAST11 (fragment 115–125 of FAST), synthetic peptide]
 |  |  |  |  |  |  | binds | Ac-GDSYWVFVKR-NH2 (CFAST11 without its last C-terminal residue; numbers count on: FAST; source: synthetic peptide, bought: Clinisciences (98% purity)) [CFAST10, synthetic peptide]
